Assays:
[1] = molecular target: Bluetongue virus (BTV) membrane penetration outer-layer protein VP5, as trimer on the virion (bluetongue virus (BTV)); assay: cryo-EM structure
[2] = molecular target: Bluetongue virus (BTV) membrane penetration outer-layer protein VP5, as trimer on the virion (bluetongue virus (BTV)); assay: […]
[3] = molecular target: Bluetongue virus (BTV) middle-layer core protein VP7, as trimer on the virion (bluetongue virus (BTV)); assay: cryo-EM structure
[4] = molecular target: Bluetongue virus (BTV) receptor-binding outer-layer protein VP2, as trimer on the virion (bluetongue virus (BTV)); assay: cryo-EM structure

Substance: Bluetongue virus (BTV) membrane penetration outer-layer protein VP5, as trimer on the virion (natural protein)
- stoichiometry N [1]: 3
- stoichiometry N [2]: 3

Substance: Bluetongue virus (BTV) middle-layer core protein VP7, as trimer on the virion (natural protein)
- stoichiometry N [3]: 3

Substance: Bluetongue virus (BTV) receptor-binding outer-layer protein VP2, as trimer on the virion (natural protein)
- stoichiometry N [4]: 3

Reference: publication PMC5669276
